The source of these data is publication PMC6524969, “A nanobody-based molecular toolkit provides new mechanistic insight into clathrin-coat initiation” (eLife, 2019).

Changes are numbered by the printed parent chain.

Assay [1] deals with T1, GST-EPS15 (1-314) (human, UniProt P42566).
T1 construct: stop codon at 315 (S315*) in pGEX-5X-1; Printed molecular weight 60,924.7; also called GST-EPS15 EH1-3; source: E. coli BL21 codon plus RIL, purified (glutathione-Sepharose); not shown: GST, N-terminal, kept
The assay is described as follows: pull-down; GST fusion (50 μg, or increasing amounts) immobilised on glutathione-Sepharose; Nb in clarified E. coli periplasmic extract adjusted to 125 mM sodium chloride; 4°C, 60 min; supernatant and pellet on Coomassie-stained gels. The settings on record: one partner purified.

Assay [2] has as its target T2, EPS15R in K-562 cell lysate (human (endogenous in K-562), UniProt Q9UBC2).
T2 construct: Epidermal growth factor receptor substrate 15R, endogenous in K-562 cells
The assay is described as follows: pull-down; called immunoprecipitation; purified His6-tagged Nb E_142 bound to Ni-NTA-agarose; K-562 cell lysate or rat brain cytosol; immunoblots. Particulars: one partner purified.

For assay [3], the target named is T3, native Eps15 in rat brain cytosol (Rattus norvegicus (brain cytosol, …, UniProt A0A8I5YC99)).
T3 construct: Eps15, endogenous in rat brain cytosol; source: endogenous, rat brain cytosol
Described as above. Particulars: one partner purified.

A further assay has as its target T4, GST-EPS15R (1-365) (Homo sapiens, UniProt Q9UBC2).
T4 construct: Epidermal growth factor receptor substrate 15R (EPS15R, gene EPS15L1), H. sapiens, residues 1-365 (stop T366*), in pGEX-5X-1; also called EPS15R EH1R-3R; source: E. coli BL21 codon plus RIL, purified (glutathione-Sepharose)
Description: pull-down; GST fusion (50 μg, or increasing amounts) immobilised on glutathione-Sepharose; Nb in clarified E. coli periplasmic extract adjusted to 125 mM sodium chloride; 4°C, 60 min; supernatant and pellet on Coomassie-stained gels. The settings on record: one partner purified.

The target of a further assay is T5, GST-EPS15 (1-109) (Homo sapiens, UniProt P42566).
T5 construct: stop codon L110* in pGEX-5X-1; Printed molecular weight 38,271.3; also called EH1; source: E. coli BL21 codon plus RIL, purified (glutathione-Sepharose); not shown: GST, N-terminal, kept
Description: pull-down; quantitative titration; Nb E_142 fixed at 2 μM, immobilised GST-EPS15 (1-109) 0.5-20 μM or (1-314) 0.25-10 μM; PBS with 100 μg/ml BSA, 4°C, 60 min, 400 μl; Nb band in the supernatant quantified; apparent KD (half-maximal binding). The settings on record: both partners purified.

For assay [4], the target named is T1, GST-EPS15 (1-314). The assay is described as above. Particulars: both partners purified.
The target in assay [5] is T6, endogenous EPS15 in HeLa cells (Homo sapiens, UniProt P42566).
T6 construct: Epidermal growth factor receptor substrate 15, endogenous in HeLa cells, stained with anti-EPS15 antibodies; source: endogenous, HeLa SS6 and HeLa clone #40 cells
The assay is described as follows: immunostaining of cells or tissue; relocalisation in cells: Nb E_142 fusion tethered to endosomes (GFP-FYVE2) or mitochondria (Akap1) in transfected HeLa cells; endogenous EPS15 stained with antibodies, confocal microscopy; controls without the Nb module. The settings on record: partners not purified.

T1 sequence (P42566 1-314): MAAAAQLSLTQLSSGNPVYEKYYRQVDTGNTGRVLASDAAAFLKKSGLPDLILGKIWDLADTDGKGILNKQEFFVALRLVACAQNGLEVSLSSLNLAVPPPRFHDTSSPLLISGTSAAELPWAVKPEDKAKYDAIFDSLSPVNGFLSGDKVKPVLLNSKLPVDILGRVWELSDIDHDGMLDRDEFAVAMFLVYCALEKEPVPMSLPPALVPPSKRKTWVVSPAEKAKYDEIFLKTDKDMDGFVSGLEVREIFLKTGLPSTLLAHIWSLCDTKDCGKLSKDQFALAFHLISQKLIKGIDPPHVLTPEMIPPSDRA
T4 sequence (Q9UBC2 1-365): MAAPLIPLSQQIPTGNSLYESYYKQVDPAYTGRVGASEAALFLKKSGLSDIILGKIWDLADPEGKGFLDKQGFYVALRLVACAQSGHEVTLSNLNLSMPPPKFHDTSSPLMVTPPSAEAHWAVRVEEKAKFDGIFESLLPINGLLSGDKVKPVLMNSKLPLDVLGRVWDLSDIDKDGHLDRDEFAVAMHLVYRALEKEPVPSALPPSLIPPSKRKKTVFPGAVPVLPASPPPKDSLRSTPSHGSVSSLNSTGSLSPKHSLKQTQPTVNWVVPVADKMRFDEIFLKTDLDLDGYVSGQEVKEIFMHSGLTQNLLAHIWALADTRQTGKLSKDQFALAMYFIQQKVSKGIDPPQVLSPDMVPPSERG
T5 sequence (P42566 1-109): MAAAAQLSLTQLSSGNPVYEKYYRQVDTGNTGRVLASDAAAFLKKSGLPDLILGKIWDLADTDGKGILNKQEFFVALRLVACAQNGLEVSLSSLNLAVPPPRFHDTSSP
T6 sequence (P42566 whole entry): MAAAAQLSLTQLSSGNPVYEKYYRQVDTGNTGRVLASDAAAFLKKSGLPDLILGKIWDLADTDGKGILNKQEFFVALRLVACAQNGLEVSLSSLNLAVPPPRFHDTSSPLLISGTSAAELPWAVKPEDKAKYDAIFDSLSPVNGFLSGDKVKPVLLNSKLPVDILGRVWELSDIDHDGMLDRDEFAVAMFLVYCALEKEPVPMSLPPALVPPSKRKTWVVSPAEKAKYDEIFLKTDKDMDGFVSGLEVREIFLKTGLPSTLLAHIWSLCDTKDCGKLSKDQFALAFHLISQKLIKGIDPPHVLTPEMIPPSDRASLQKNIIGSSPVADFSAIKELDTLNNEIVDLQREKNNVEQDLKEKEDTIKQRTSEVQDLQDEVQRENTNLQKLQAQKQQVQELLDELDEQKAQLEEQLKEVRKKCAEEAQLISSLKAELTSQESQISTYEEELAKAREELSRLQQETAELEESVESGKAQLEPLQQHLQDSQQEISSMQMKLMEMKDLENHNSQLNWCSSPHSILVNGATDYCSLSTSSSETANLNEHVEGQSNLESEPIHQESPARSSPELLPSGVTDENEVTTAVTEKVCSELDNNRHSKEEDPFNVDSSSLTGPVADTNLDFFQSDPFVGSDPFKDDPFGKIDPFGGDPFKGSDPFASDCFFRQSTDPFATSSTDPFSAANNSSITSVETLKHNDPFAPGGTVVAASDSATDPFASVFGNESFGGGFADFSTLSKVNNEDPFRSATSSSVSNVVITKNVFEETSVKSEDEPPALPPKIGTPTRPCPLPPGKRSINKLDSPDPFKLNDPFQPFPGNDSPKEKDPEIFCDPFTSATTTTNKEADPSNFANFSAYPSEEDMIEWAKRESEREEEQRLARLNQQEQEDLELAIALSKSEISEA
T2 sequence (Q9UBC2 whole entry): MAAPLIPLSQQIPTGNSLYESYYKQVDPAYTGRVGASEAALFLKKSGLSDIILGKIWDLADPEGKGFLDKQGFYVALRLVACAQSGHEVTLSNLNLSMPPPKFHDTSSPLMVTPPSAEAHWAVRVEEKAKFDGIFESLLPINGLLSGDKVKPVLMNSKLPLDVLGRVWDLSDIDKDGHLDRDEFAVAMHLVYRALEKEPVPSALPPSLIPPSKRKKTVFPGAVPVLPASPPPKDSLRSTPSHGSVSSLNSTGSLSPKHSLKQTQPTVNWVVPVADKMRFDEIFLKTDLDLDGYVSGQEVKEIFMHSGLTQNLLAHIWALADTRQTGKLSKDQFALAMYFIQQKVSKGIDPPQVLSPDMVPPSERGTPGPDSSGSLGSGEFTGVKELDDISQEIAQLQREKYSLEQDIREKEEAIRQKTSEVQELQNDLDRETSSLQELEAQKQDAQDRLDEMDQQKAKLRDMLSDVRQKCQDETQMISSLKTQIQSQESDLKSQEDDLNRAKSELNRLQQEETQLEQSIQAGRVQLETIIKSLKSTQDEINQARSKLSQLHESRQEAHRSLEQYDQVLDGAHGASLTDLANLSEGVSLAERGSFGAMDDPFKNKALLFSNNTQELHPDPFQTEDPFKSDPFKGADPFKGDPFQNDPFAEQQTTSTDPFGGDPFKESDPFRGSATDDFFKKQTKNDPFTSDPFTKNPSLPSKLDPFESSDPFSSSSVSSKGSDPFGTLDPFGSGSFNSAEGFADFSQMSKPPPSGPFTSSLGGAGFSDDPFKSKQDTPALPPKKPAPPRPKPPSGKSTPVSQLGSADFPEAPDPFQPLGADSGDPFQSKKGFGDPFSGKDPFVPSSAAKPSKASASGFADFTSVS

B1: Nb E_3 (VHH)
VHH: QVQLQESGGGLVQAGGSLRLSCAASGSIFSINAMGWYRQAPGKQRELVAAITSGGTTNYADSVKGRFTISRDNAKNTLYLQMNSLKPEDTAVYYCNLGGLRNPFGSWGQGTQVTVSS
notes: NPF tripeptide in CDR3, placed differently from that of Nb E_142; also called Nb E_3-His6; source: E. coli XL1-Blue (pHEN6c), periplasmic extract
In the case of B1, in the assay with GST-EPS15 (1-314) [1], the binding result is reported as “binds”.

B2: Nb E_142 (VHH)
VHH: QVQLQESGGGLVQAGGSLRLSCAASGFISSSSTMGWYRPAPGKQRELVASISSGGTTNYAESVKGRFTISRDNAKNTVYLQMDSLKPEDTAVYYCNMKSMNPFRRYDVWGQGTQVTVSS
notes: NPF(R) tripeptide in CDR3; Printed molecular weight of Nb E_142-His6: 13,683.2; also called Nb E_142-His6; His6-tagged Nb E_142; source: E. coli XL1-Blue (pHEN6c), periplasmic extract; also purified from the periplasmic extract (Ni-NTA-agarose, Sephacryl S-100); not shown: His6, C-terminal, kept
With B2, the binding result (in assay [2]; in assay [3]; with GST-EPS15R (1-365)) was “binds” throughout. The values for the Kd with GST-EPS15 (1-109) and in the assay with GST-EPS15 (1-314) [4] were approximately 3000 nM and approximately 2000 nM, respectively.

B3: GFP-FYVE2-desNb E_142 (VHH)
VHH: B2 VHH with S70R, C95Y, S119F
notes: Four glycine residues between the second FYVE domain and the Nb; also called GFP-FYVE2-dNb E_142; 3maj conditionally destabilized Nb E_142; source: HeLa SS6, transiently transfected, in cells; not shown: GFP, N-terminal, kept; tandem FYVE domain (FYVE2), N-terminal, kept
Regarding B3, the binding result in assay [5] is “binds”.

B4: Nb E_180 (VHH)
VHH: QVQLQESGGGSVQAGGSLRLSCAASGSIFSVNLMGWYREAPGKATEFVATVTAGGYTNVADSLKDRFTISMDNAKNTVYLQMNNLKPEDTAVYYCNMKSMNPFRRYDVWGQGTQVTVSS
notes: CDR3 identical to that of Nb E_142, 18 amino acid differences from Nb E_142; also called Nb E_180-His6; source: E. coli XL1-Blue (pHEN6c), periplasmic extract
For the molecule B4, the binding result with GST-EPS15 (1-314) [1] is given as “binds”.
